Laboratory results reported in paper doi:10.1101/099465.

Target: Laminin-111 (UniProt P19137)
Assay: SPR

Kd: 47 nM
Substance: VEGFA165 (ligand)
